From paper PMC10786891, “Massively parallel profiling of RNA-targeting CRISPR-Cas13d” come the findings set out here.

First the molecules themselves.
T1: EsCas13d, nuclease-dead (Eubacterium siraeum, UniProt B0MS50, R295A;H300A;R849A;H854A)
T1 sequence: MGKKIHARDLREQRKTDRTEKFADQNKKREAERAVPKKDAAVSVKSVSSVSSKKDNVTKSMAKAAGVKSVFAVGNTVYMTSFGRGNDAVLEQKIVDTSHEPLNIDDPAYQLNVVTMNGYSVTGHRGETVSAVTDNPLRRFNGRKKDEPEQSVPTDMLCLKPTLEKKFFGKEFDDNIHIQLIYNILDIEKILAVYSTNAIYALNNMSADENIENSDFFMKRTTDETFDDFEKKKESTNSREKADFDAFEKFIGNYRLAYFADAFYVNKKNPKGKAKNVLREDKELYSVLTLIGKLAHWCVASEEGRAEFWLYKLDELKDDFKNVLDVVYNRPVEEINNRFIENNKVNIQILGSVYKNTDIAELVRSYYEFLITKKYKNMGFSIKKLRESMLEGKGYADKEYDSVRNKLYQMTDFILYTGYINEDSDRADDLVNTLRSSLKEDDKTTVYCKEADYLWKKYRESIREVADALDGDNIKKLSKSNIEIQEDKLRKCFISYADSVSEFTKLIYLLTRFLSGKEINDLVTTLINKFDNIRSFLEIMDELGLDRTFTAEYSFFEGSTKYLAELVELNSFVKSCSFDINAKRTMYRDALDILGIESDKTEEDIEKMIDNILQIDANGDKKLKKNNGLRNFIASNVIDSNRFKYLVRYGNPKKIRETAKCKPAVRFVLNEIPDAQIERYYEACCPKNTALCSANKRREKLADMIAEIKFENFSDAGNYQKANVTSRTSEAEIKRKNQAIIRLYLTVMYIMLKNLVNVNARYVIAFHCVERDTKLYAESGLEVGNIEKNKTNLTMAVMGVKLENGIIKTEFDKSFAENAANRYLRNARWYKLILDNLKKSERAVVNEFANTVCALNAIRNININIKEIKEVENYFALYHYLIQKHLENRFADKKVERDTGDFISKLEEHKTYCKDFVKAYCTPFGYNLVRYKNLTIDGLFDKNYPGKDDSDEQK

B1: target 1 MT 5'PFS UCG 3'PFS UUU (mixed)
RNA 1: CACCCGUGCAAAAAUGCAGGGGUCUAAAACUGAGCGGAUAACCUCUCUAUGG
RNA 2: GGGAAUGGAUCCACAUCUACGAAUUCUCGCCAUAGAGAGGUUAUCCGCUCAUUUAGAUCGGAAGAGCACACGU
B2: target 1 MT 5'PFS ACA 3'PFS AGG (mixed)
RNA 1: CACCCGUGCAAAAAUGCAGGGGUCUAAAACUGAGCGGAUAACCUCUCUAUGG
RNA 2: GGGAAUGGAUCCACAUCUACGAAUUCACACCAUAGAGAGGUUAUCCGCUCAAGGAGAUCGGAAGAGCACACGU
B3: target 1 MT 5'PFS UUG 3'PFS AAC (mixed)
RNA 1: CACCCGUGCAAAAAUGCAGGGGUCUAAAACUGAGCGGAUAACCUCUCUAUGG
RNA 2: GGGAAUGGAUCCACAUCUACGAAUUCUUGCCAUAGAGAGGUUAUCCGCUCAAACAGAUCGGAAGAGCACACGU
B4: target 1 MT 5'PFS GCA 3'PFS UUG (mixed)
RNA 1: CACCCGUGCAAAAAUGCAGGGGUCUAAAACUGAGCGGAUAACCUCUCUAUGG
RNA 2: GGGAAUGGAUCCACAUCUACGAAUUCGCACCAUAGAGAGGUUAUCCGCUCAUUGAGAUCGGAAGAGCACACGU
B5: target 1 MT 5'PFS UUG 3'PFS AAU (mixed)
RNA 1: CACCCGUGCAAAAAUGCAGGGGUCUAAAACUGAGCGGAUAACCUCUCUAUGG
RNA 2: GGGAAUGGAUCCACAUCUACGAAUUCUUGCCAUAGAGAGGUUAUCCGCUCAAAUAGAUCGGAAGAGCACACGU
B6: target 1 MT 5'PFS GCA 3'PFS UUU (mixed)
RNA 1: CACCCGUGCAAAAAUGCAGGGGUCUAAAACUGAGCGGAUAACCUCUCUAUGG
RNA 2: GGGAAUGGAUCCACAUCUACGAAUUCGCACCAUAGAGAGGUUAUCCGCUCAUUUAGAUCGGAAGAGCACACGU
B7: target 1 MT 5'PFS CCU 3'PFS AUA (mixed)
RNA 1: CACCCGUGCAAAAAUGCAGGGGUCUAAAACUGAGCGGAUAACCUCUCUAUGG
RNA 2: GGGAAUGGAUCCACAUCUACGAAUUCCCUCCAUAGAGAGGUUAUCCGCUCAAUAAGAUCGGAAGAGCACACGU
B8: target 1 del1 (mixed)
RNA 1: CACCCGUGCAAAAAUGCAGGGGUCUAAAACUGAGCGGAUAACCUCUCUAUGG
RNA 2: GGGAAUGGAUCCACAUCUACGAAUUCGUACCAUAGAGAGGUUAUCCGCUCCCGAGAUCGGAAGAGCACACGU
B9: target 1 MT 5'PFS GGG 3'PFS CAU (mixed)
RNA 1: CACCCGUGCAAAAAUGCAGGGGUCUAAAACUGAGCGGAUAACCUCUCUAUGG
RNA 2: GGGAAUGGAUCCACAUCUACGAAUUCGGGCCAUAGAGAGGUUAUCCGCUCACAUAGAUCGGAAGAGCACACGU
B10: target 1 MT 5'PFS CCU 3'PFS AUC (mixed)
RNA 1: CACCCGUGCAAAAAUGCAGGGGUCUAAAACUGAGCGGAUAACCUCUCUAUGG
RNA 2: GGGAAUGGAUCCACAUCUACGAAUUCCCUCCAUAGAGAGGUUAUCCGCUCAAUCAGAUCGGAAGAGCACACGU
B11: target 1 MT 5'PFS GCU 3'PFS UAU (mixed)
RNA 1: CACCCGUGCAAAAAUGCAGGGGUCUAAAACUGAGCGGAUAACCUCUCUAUGG
RNA 2: GGGAAUGGAUCCACAUCUACGAAUUCGCUCCAUAGAGAGGUUAUCCGCUCAUAUAGAUCGGAAGAGCACACGU
B12: target 1 del2 (mixed)
RNA 1: CACCCGUGCAAAAAUGCAGGGGUCUAAAACUGAGCGGAUAACCUCUCUAUGG
RNA 2: GGGAAUGGAUCCACAUCUACGAAUUCGUACCAUAGAGAGGUUAUCCGCUACCGAGAUCGGAAGAGCACACGU
B13: target 1 MT 5'PFS GGG 3'PFS ACG (mixed)
RNA 1: CACCCGUGCAAAAAUGCAGGGGUCUAAAACUGAGCGGAUAACCUCUCUAUGG
RNA 2: GGGAAUGGAUCCACAUCUACGAAUUCGGGCCAUAGAGAGGUUAUCCGCUCAACGAGAUCGGAAGAGCACACGU
B14: target 1 MT 5'PFS GGG 3'PFS CAC (mixed)
RNA 1: CACCCGUGCAAAAAUGCAGGGGUCUAAAACUGAGCGGAUAACCUCUCUAUGG
RNA 2: GGGAAUGGAUCCACAUCUACGAAUUCGGGCCAUAGAGAGGUUAUCCGCUCACACAGAUCGGAAGAGCACACGU
B15: target 1 MT 5'PFS GGG 3'PFS AAU (mixed)
RNA 1: CACCCGUGCAAAAAUGCAGGGGUCUAAAACUGAGCGGAUAACCUCUCUAUGG
RNA 2: GGGAAUGGAUCCACAUCUACGAAUUCGGGCCAUAGAGAGGUUAUCCGCUCAAAUAGAUCGGAAGAGCACACGU
B16: target 1 MT 5'PFS AGC 3'PFS AAA (mixed)
RNA 1: CACCCGUGCAAAAAUGCAGGGGUCUAAAACUGAGCGGAUAACCUCUCUAUGG
RNA 2: GGGAAUGGAUCCACAUCUACGAAUUCAGCCCAUAGAGAGGUUAUCCGCUCAAAAAGAUCGGAAGAGCACACGU
B17: target 1 A1C,C4A (mixed)
RNA 1: CACCCGUGCAAAAAUGCAGGGGUCUAAAACUGAGCGGAUAACCUCUCUAUGG
RNA 2: GGGAAUGGAUCCACAUCUACGAAUUCGUACCAUAGAGAGGUUAUCCGAUCCCCGAGAUCGGAAGAGCACACGU
B18: target 1 MT 5'PFS CUU 3'PFS AAU (mixed)
RNA 1: CACCCGUGCAAAAAUGCAGGGGUCUAAAACUGAGCGGAUAACCUCUCUAUGG
RNA 2: GGGAAUGGAUCCACAUCUACGAAUUCCUUCCAUAGAGAGGUUAUCCGCUCAAAUAGAUCGGAAGAGCACACGU
B19: target 1 MT 5'PFS GAA 3'PFS CUU (mixed)
RNA 1: CACCCGUGCAAAAAUGCAGGGGUCUAAAACUGAGCGGAUAACCUCUCUAUGG
RNA 2: GGGAAUGGAUCCACAUCUACGAAUUCGAACCAUAGAGAGGUUAUCCGCUCACUUAGAUCGGAAGAGCACACGU
B20: target 1 MT 5'PFS GGG 3'PFS CAG (mixed)
RNA 1: CACCCGUGCAAAAAUGCAGGGGUCUAAAACUGAGCGGAUAACCUCUCUAUGG
RNA 2: GGGAAUGGAUCCACAUCUACGAAUUCGGGCCAUAGAGAGGUUAUCCGCUCACAGAGAUCGGAAGAGCACACGU
B21: target 1 MT 5'PFS GCU 3'PFS AGA (mixed)
RNA 1: CACCCGUGCAAAAAUGCAGGGGUCUAAAACUGAGCGGAUAACCUCUCUAUGG
RNA 2: GGGAAUGGAUCCACAUCUACGAAUUCGCUCCAUAGAGAGGUUAUCCGCUCAAGAAGAUCGGAAGAGCACACGU
B22: target 1 MT 5'PFS GAA 3'PFS CUA (mixed)
RNA 1: CACCCGUGCAAAAAUGCAGGGGUCUAAAACUGAGCGGAUAACCUCUCUAUGG
RNA 2: GGGAAUGGAUCCACAUCUACGAAUUCGAACCAUAGAGAGGUUAUCCGCUCACUAAGAUCGGAAGAGCACACGU
B23: target 1 MT 5'PFS UCG 3'PFS CUA (mixed)
RNA 1: CACCCGUGCAAAAAUGCAGGGGUCUAAAACUGAGCGGAUAACCUCUCUAUGG
RNA 2: GGGAAUGGAUCCACAUCUACGAAUUCUCGCCAUAGAGAGGUUAUCCGCUCACUAAGAUCGGAAGAGCACACGU
B24: target 1 MT 5'PFS GGG 3'PFS ACA (mixed)
RNA 1: CACCCGUGCAAAAAUGCAGGGGUCUAAAACUGAGCGGAUAACCUCUCUAUGG
RNA 2: GGGAAUGGAUCCACAUCUACGAAUUCGGGCCAUAGAGAGGUUAUCCGCUCAACAAGAUCGGAAGAGCACACGU
B25: target 1 MT 5'PFS GCU 3'PFS AGC (mixed)
RNA 1: CACCCGUGCAAAAAUGCAGGGGUCUAAAACUGAGCGGAUAACCUCUCUAUGG
RNA 2: GGGAAUGGAUCCACAUCUACGAAUUCGCUCCAUAGAGAGGUUAUCCGCUCAAGCAGAUCGGAAGAGCACACGU
B26: target 1 MT 5'PFS CUU 3'PFS AAC (mixed)
RNA 1: CACCCGUGCAAAAAUGCAGGGGUCUAAAACUGAGCGGAUAACCUCUCUAUGG
RNA 2: GGGAAUGGAUCCACAUCUACGAAUUCCUUCCAUAGAGAGGUUAUCCGCUCAAACAGAUCGGAAGAGCACACGU
B27: target 1 MT 5'PFS GGG 3'PFS CAA (mixed)
RNA 1: CACCCGUGCAAAAAUGCAGGGGUCUAAAACUGAGCGGAUAACCUCUCUAUGG
RNA 2: GGGAAUGGAUCCACAUCUACGAAUUCGGGCCAUAGAGAGGUUAUCCGCUCACAAAGAUCGGAAGAGCACACGU

The series addresses T1, EsCas13d, nuclease-dead. The experiment in a line: crRNA (strand 1, pre-loaded); Mg2+; 40 mM Tris-HCl pH 7.5, 150 mM NaCl, 6 mM MgCl2, 1 mM DTT, 0.1% Tween-20, 0.2 mg/ml BSA; 25 C; 10 min per concentration, then washed. The conditions noted are these: tags: His6-TwinStrep-SUMO cleaved; N-terminal SNAP kept (SNAP-Surface 488); label: 3' end held by stalled T7 RNA polymerase.
B1: the dissociation constant Kd (commonly the concentration at which binding is half-saturated) came to 24 ± 5 nM.

B2 displayed a Kd of roughly 46 nM.

With B3, the Kd was roughly 41.5 nM.

On to B4, for which binding was characterised by a dissociation constant (Kd) of 5.14 ± 0.38 nM.

With B5, the Kd is 22.5 ± 4.25 nM.

Regarding B6, the Kd came to 11 ± 2.4 nM.

In turn, B7 displayed a Kd of 21 ± 5 nM.

On to B8, for which binding was put at a Kd of 39 ± 9 nM.

In turn, B9 registered a dissociation constant Kd of 32 ± 12 nM.

With B10, the Kd came to 21 ± 8 nM.

B11 showed an equilibrium dissociation constant (Kd) of 73 ± 28 nM.

B12 displayed a dissociation constant (Kd) of 33 ± 4 nM.

In turn, B13 gave a Kd of 17.5 ± 1.85 nM.

Take B14: the Kd was roughly 55.5 nM.

For B15, the dissociation constant Kd amounted to 28 ± 4.5 nM.

In the case of B16, the Kd is roughly 52 nM.

Molecule B17 gave a dissociation constant Kd of 7.5 ± 1 nM.

B18 returned a Kd of 58 ± 27 nM.

With B19, the affinity, expressed as Kd, was 18.5 ± 7.5 nM.

For the molecule B20, the Kd stood at 32 ± 5.5 nM.

In turn, B21 had a Kd of 56 ± 16.5 nM.

B22: the Kd is roughly 40 nM.

As to B23, binding was put at a Kd of 29 ± 7 nM.

For B24, binding was put at a Kd of 28.5 ± 6.5 nM.

B25 yielded an equilibrium dissociation constant (Kd) of 36 ± 7 nM.

B26: the Kd came to 41 ± 17.5 nM.

In turn, B27 came in with a Kd of 50.5 ± 21.5 nM.
